The results in this text go back to patent publication US20220249561A1 (SHINSHU UNIVERSITY, published 2022).

One experiment addresses T1, ALK 001P.
T1 construct: ALK (1-19) is described only as a region comprising a secretory signal, and no cleavage site is stated; Expressed in Expi293 cells and captured on a Protein A chip through its Fc
Briefly: SPR, Biacore 8K; ALK 001P captured on Protein A chip, ligand as analyte, 6 concentrations from 20 nM.

In a further experiment the target is T2, LTK 001P.
T2 construct: Expressed in Expi293 cells and captured on a Protein A chip through its Fc
T2 sequence (chain, as listed by the source limits assumed): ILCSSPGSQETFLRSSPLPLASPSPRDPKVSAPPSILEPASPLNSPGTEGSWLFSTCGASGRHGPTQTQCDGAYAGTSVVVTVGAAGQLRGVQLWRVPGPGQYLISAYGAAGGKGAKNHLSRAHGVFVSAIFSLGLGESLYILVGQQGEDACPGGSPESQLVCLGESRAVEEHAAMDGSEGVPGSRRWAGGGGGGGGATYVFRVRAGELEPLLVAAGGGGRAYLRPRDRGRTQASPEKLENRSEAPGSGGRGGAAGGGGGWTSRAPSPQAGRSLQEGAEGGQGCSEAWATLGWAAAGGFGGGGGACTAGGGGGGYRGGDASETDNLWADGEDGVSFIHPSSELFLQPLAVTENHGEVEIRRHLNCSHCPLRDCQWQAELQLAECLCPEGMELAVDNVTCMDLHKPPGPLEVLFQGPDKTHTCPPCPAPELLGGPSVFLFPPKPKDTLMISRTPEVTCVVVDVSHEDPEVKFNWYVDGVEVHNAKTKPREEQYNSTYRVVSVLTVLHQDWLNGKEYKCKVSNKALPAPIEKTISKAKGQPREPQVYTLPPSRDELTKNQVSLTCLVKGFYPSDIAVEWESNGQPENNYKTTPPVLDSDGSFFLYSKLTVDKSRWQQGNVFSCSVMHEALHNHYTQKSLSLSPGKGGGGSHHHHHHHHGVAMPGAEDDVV
Nature of the experiment: SPR, Biacore 8K; LTK 001P captured on Protein A chip, ligand as analyte, 6 concentrations from 20 nM.

T1 sequence (chain, as listed by the source limits assumed): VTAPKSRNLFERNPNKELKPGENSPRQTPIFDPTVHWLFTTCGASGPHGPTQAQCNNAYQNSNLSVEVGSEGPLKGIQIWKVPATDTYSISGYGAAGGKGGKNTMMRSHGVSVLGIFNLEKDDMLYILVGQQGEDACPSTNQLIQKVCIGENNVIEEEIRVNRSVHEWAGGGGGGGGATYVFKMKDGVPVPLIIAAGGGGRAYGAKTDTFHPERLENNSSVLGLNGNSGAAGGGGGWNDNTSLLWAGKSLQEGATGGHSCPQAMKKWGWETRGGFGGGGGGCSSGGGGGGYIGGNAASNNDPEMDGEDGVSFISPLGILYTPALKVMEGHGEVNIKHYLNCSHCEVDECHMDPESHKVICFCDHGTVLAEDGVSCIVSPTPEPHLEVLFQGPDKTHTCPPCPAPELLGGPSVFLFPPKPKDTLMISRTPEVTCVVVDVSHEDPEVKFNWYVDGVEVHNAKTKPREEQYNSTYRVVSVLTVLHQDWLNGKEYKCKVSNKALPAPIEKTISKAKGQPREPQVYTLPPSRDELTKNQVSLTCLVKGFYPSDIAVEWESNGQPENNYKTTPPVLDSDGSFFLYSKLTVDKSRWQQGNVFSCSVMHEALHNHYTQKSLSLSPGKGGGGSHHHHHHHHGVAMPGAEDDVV

B1: Ligand 005P (ligand)
chain: DGHHHHHHGSLQDSEVNQEAKPEVKPEVKPETHINLKVSDGSSEIFFKIKKTTPLRRLMEAFAKRQGKEMDSLTFLYDGIEIQADQTPEDLDMEDNDIIEAHREQIGGLEVLFQGPALGRAEAAGLGPSPEQRVEIVPRDLRMKDKFLKHLTGPLYFSPKCSKHFHRLYHNTRDCTIPAYYKRCARLLTRLAVSPVCMEDKQ
B1: the binding result with ALK 001P and with LTK 001P was “binds” each time.

B2: Ligand 010P (ligand)
chain: DGHHHHHHGSLQDSEVNQEAKPEVKPEVKPETHINLKVSDGSSEIFFKIKKTTPLRRLMEAFAKRQGKEMDSLTFLYDGIEIQADQTPEDLDMEDNDIIEAHREQIGGLEVLFQGPSPEQRVEIVPRDLRMKDKFLKHLTGPLYFSPKCSKHFHRLYHNTRDCTIPAYYKRCARLLTRLAVSPVCMEDKQ
Take B2: the binding result with ALK 001P and in the experiment with LTK 001P was “binds” each time.

B3: Ligand 003P (ligand)
chain: DGHHHHHHGSLQDSEVNQEAKPEVKPEVKPETHINLKVSDGSSEIFFKIKKTTPLRRLMEAFAKRQGKEMDSLTFLYDGIEIQADQTPEDLDMEDNDIIEAHREQIGGLEVLFQGPAEAAGLGPSPEQRVEIVPRDLRMKDKFLKHLTGPLYFSPKCSKHFHRLYHNTRDCTIPAYYKRCARLLTRLAVSPVCMEDKQ
For B3, the binding result in the experiment with ALK 001P and in the experiment with LTK 001P was “binds” each time.

B4: Ligand 011P (ligand)
chain: DGHHHHHHGSLQDSEVNQEAKPEVKPEVKPETHINLKVSDGSSEIFFKIKKTTPLRRLMEAFAKRQGKEMDSLTFLYDGIEIQADQTPEDLDMEDNDIIEAHREQIGGLEVLFQGPEQRVEIVPRDLRMKDKFLKHLTGPLYFSPKCSKHFHRLYHNTRDCTIPAYYKRCARLLTRLAVSPVCMEDKQ
notes: also called Li 011P
With B4, the binding result with ALK 001P and in the experiment with LTK 001P was “binds” throughout.

B5: Ligand 006P (ligand)
chain: DGHHHHHHGSLQDSEVNQEAKPEVKPEVKPETHINLKVSDGSSEIFFKIKKTTPLRRLMEAFAKRQGKEMDSLTFLYDGIEIQADQTPEDLDMEDNDIIEAHREQIGGLEVLFQGPGRAEAAGLGPSPEQRVEIVPRDLRMKDKFLKHLTGPLYFSPKCSKHFHRLYHNTRDCTIPAYYKRCARLLTRLAVSPVCMEDKQ
As to B5, the binding result with ALK 001P and with LTK 001P was “binds” each time.

B6: Ligand 007P (ligand)
chain: DGHHHHHHGSLQDSEVNQEAKPEVKPEVKPETHINLKVSDGSSEIFFKIKKTTPLRRLMEAFAKRQGKEMDSLTFLYDGIEIQADQTPEDLDMEDNDIIEAHREQIGGLEVLFQGPAAGLGPSPEQRVEIVPRDLRMKDKFLKHLTGPLYFSPKCSKHFHRLYHNTRDCTIPAYYKRCARLLTRLAVSPVCMEDKQ
B6: the binding result in the experiment with ALK 001P and in the experiment with LTK 001P was “binds” each time.

B7: Ligand 009P (ligand)
chain: DGHHHHHHGSLQDSEVNQEAKPEVKPEVKPETHINLKVSDGSSEIFFKIKKTTPLRRLMEAFAKRQGKEMDSLTFLYDGIEIQADQTPEDLDMEDNDIIEAHREQIGGLEVLFQGPGPSPEQRVEIVPRDLRMKDKFLKHLTGPLYFSPKCSKHFHRLYHNTRDCTIPAYYKRCARLLTRLAVSPVCMEDKQ
For the molecule B7, the binding result with ALK 001P and with LTK 001P was “binds” each time.

B8: Ligand 008P (ligand)
chain: DGHHHHHHGSLQDSEVNQEAKPEVKPEVKPETHINLKVSDGSSEIFFKIKKTTPLRRLMEAFAKRQGKEMDSLTFLYDGIEIQADQTPEDLDMEDNDIIEAHREQIGGLEVLFQGPGLGPSPEQRVEIVPRDLRMKDKFLKHLTGPLYFSPKCSKHFHRLYHNTRDCTIPAYYKRCARLLTRLAVSPVCMEDKQ
Regarding B8, the binding result with ALK 001P and in the experiment with LTK 001P was “binds” throughout.
